Reference: paper PMC4678816, “Structural basis for suppression of hypernegative DNA supercoiling by E. coli topoisomerase I”

Experiments:
[1] = biological target: E. coli topoisomerase I (EcTOP1) (Escherichia coli, UniProt P06612 1-865); test: X-ray crystallography; 1 mM ZnSO4, pH 6.0; 2.9 A; ssDNA 3' end bound by D5, D7, D8, D9 and R189; Footprinting: 40 mM Tris-HCl (pH not stated), 0.1 mg/ml BSA, 5 mM MgCl2, 37 C, 1 h; crystals: 0.125 M ammonium sulfate, 0.1 M MES pH 6.0, 1 mM ZnSO4, 19% PEG MME 5000, 24 C; details: protein: recombinant; tags: N-terminal His6 removed with TEV protease; label: none in crystal; 3' overhang 9 nt on O29; 20 bp duplex
EcTOP1-G116S = EcTOP1-G116S (Escherichia coli, UniProt P06612 1-865, G116S); test: DNase I footprinting; 5 mM MgCl2; partial protection of double-stranded region, both strands; Footprinting: 40 mM Tris-HCl (pH not stated), 0.1 mg/ml BSA, 5 mM MgCl2, 37 C, 1 h; crystals: 0.125 M ammonium sulfate, 0.1 M MES pH 6.0, 1 mM ZnSO4, 19% PEG MME 5000, 24 C; details: protein: recombinant; label: 5' 32P on G-strand or T-strand; duplex with 12-nt unpaired bubble

| Binder | binding result [1] | binding result (EcTOP1-G116S) |
| --- | --- | --- |
| O29-O20 partial duplex (mixed) DNA 1: GCTAAACCTGAAAGATTATGCGATTTGGG DNA 2: CATAATCTTTCAGGTTTAGC | binds |  |
| DNA bubble substrate (G-strand/T-strand) (mixed) DNA 1: GCCCTGAAAGATTATGGAATGCGATTAGTTCAAGAGCGTGAGCG DNA 2: CGCTCACGCTCTTGAAGTAGAGGAAGGACATAATCTTTCAGGGC |  | binds |
